Test results reported in doi:10.1101/647354 (bioRxiv, 2019).

Molecular target: T1, complement C5 (human, UniProt P01031 19-673; P01031 678-1676)
T1 construct: also called human C5; source: endogenous, human serum
Assay: cryo-EM structure
Conditions: both partners purified

T1 sequence (P01031 19-673, chain 1 of 2): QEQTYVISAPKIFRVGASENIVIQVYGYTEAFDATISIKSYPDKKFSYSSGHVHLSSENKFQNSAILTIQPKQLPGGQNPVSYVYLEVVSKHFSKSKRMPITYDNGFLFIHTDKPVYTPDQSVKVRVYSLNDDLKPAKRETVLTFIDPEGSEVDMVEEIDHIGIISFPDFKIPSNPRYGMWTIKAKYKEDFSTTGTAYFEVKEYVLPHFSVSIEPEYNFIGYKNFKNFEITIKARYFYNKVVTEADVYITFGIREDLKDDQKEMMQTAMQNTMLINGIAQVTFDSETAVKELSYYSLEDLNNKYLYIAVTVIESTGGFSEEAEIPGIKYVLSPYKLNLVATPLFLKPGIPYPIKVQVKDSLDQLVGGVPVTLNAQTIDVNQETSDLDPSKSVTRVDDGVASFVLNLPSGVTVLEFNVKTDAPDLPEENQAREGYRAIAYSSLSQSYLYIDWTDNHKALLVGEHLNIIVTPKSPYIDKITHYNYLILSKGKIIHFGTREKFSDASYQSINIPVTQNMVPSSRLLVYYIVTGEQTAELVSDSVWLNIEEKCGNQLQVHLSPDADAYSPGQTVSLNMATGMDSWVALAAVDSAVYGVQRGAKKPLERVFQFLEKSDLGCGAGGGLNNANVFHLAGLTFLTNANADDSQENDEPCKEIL
T1 sequence (P01031 678-1676, chain 2 of 2): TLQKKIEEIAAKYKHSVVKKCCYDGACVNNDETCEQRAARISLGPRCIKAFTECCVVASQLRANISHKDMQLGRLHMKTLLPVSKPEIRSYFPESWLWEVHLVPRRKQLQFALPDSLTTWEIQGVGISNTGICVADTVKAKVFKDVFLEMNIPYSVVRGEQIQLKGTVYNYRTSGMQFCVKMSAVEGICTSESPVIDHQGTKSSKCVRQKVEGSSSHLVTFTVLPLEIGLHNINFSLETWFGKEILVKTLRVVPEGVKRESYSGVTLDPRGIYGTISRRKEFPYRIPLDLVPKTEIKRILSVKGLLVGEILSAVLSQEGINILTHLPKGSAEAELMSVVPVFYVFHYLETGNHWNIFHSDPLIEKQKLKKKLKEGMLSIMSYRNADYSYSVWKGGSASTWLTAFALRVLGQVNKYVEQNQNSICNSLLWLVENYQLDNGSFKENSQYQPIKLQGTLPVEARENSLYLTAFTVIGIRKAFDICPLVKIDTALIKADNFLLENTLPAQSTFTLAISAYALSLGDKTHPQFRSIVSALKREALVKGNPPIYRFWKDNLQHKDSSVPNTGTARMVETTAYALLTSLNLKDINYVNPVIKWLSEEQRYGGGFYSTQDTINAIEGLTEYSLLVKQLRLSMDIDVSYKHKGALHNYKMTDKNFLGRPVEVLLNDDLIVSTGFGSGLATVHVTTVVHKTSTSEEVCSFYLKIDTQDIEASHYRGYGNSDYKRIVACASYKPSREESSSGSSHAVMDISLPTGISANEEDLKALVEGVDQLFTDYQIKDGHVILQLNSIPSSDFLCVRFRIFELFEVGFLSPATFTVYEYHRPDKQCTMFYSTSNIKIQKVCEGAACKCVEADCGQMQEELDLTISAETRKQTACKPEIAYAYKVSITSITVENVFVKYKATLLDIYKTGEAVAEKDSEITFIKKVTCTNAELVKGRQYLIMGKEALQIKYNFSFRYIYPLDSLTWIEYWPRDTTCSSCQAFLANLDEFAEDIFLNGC

B1: OmCI (natural protein)
chain: DSESDCTGSEPVDAFQAFSEGKEAYVLVRSTDPKARDCLKGEPAGEKQDNTLPVMMTFKNGTDWASTDWTFTLDGAKVTATLGNLTQNREVVYDSQSHHCHVDKVEKEVPDYEMWMLDAGGLEVEVECCRQKLEELASGRNQMYPHLKDC
notes: also called Coversin; His-tagged OmCI
- binding result: binds
